# Data taken from patent US10227388B2, “Peptides and combination of peptides for use in immunotherapy against non-small cell lung cancer and other cancers” (immatics biotechnologies GmbH, priority 2015, dated 2019).
# Biological target: HLA-A*02:01 (Homo sapiens, UniProt P04439, D140Y/D185E/D98H/E176V/E277Q/G131W/G231S/I119V/I121R/I166T/I218V/L300P/L318F/N151K/N90K/P208A/P217A/Q86G/Q94H/R138H/R169H/T345S)
# Assay: MHC binding assay (UV-ligand exchange, ELISA, peptide exchange yield)
# Settings: binding of HLA-class I restricted peptides to HLA-A*02:01
# Method in brief: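 Peptide–HLA-A*02:01 complexes made by UV-ligand exchange of a UV-cleavable peptide for the test peptide. Exchange yield measured by ELISA: 100-fold diluted monomers captured on streptavidin, 1 h at 37° C., detected with HRP anti-β2m and TMB, absorbance at 450 nm.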
row,"Peptide exchange (MHC class I binding score, peptide exchange yield)",Substance
1,″+++″ (≥50% = +++),240 (ILLEQAFYL; listed as Homo sapiens) [compound 240]
2,″+++″ (≥50% = +++),241 (SLVEVNPAYSV; listed as Homo sapiens) [compound 241]
3,″++″ (≥20% = ++),242 (AIAYILQGV; listed as Homo sapiens) [compound 242]
4,″+++″ (≥50% = +++),243 (LLLNELPSV; listed as Homo sapiens) [compound 243]
5,″+++″ (≥50% = +++),244 (SLFGGTEITI; listed as Homo sapiens) [compound 244]
6,″+++″ (≥50% = +++),245 (SMIDDLLGV; listed as Homo sapiens) [compound 245]
7,″+++″ (≥50% = +++),246 (LLWEVVSQL; listed as Homo sapiens) [compound 246]
8,″+++″ (≥50% = +++),248 (FLFPNQYVDV; listed as Homo sapiens) [compound 248]
9,″+++″ (≥50% = +++),249 (LLDGFLVNV; listed as Homo sapiens) [compound 249]
10,″+++″ (≥50% = +++),250 (ALSEEGLLVYL; listed as Homo sapiens) [compound 250]
11,″++″ (≥20% = ++),251 (ALYTGFSILV; listed as Homo sapiens) [compound 251]
12,″+++″ (≥50% = +++),252 (LLIGTDVSL; listed as Homo sapiens) [compound 252]
13,″++″ (≥20% = ++),253 (GLDAATATV; listed as Homo sapiens) [compound 253]
14,″+++″ (≥50% = +++),254 (TLLAFIMEL; listed as Homo sapiens) [compound 254]
15,″+++″ (≥50% = +++),255 (VLASYNLTV; listed as Homo sapiens) [compound 255]
16,″+++″ (≥50% = +++),256 (FLPPEHTIVYI; listed as Homo sapiens) [compound 256]
17,″+++″ (≥50% = +++),257 (SIFSAFLSV; listed as Homo sapiens) [compound 257]
18,″++″ (≥20% = ++),258 (ELAERVPAI; listed as Homo sapiens) [compound 258]
19,″++″ (≥20% = ++),261 (YVLEFLEEI; listed as Homo sapiens) [compound 261]
20,″+++″ (≥50% = +++),262 (LLWGDLIWL; listed as Homo sapiens) [compound 262]
21,″+++″ (≥50% = +++),263 (LLVSNLDFGV; listed as Homo sapiens) [compound 263]
22,″+++″ (≥50% = +++),264 (SLQEQLHSV; listed as Homo sapiens) [compound 264]
23,″++″ (≥20% = ++),265 (LLFGGTKTV; listed as Homo sapiens) [compound 265]
24,″+++″ (≥50% = +++),266 (KITDTLIHL; listed as Homo sapiens) [compound 266]

# Further lines, the substance ahead of its results:
row,Substance,"Peptide exchange (MHC class I binding score, peptide exchange yield)"
1,194 (ALPLFVITV; listed as Homo sapiens) [compound 194],″+++″ (≥50% = +++)
2,195 (GLFADLLPRL; listed as Homo sapiens) [compound 195],″+++″ (≥50% = +++)
3,196 (YLYSVEIKL; listed as Homo sapiens) [compound 196],″++++″ (≥75% = ++++)
4,197 (ALGPEGGRV; listed as Homo sapiens) [compound 197],″++″ (≥20% = ++)
5,198 (KTINKVPTV; listed as Homo sapiens) [compound 198],″+++″ (≥50% = +++)
6,200 (LLFGSVQEV; listed as Homo sapiens) [compound 200],″+++″ (≥50% = +++)
7,201 (RLVDYLEGI; listed as Homo sapiens) [compound 201],″+++″ (≥50% = +++)
8,202 (ALLDQQGSRWTL; listed as Homo sapiens) [compound 202],″+++″ (≥50% = +++)
9,204 (KIAENVEEV; listed as Homo sapiens) [compound 204],″++″ (≥20% = ++)
10,205 (SLYPGTETMGL; listed as Homo sapiens) [compound 205],″+++″ (≥50% = +++)
11,206 (VLQEGKLQKLAQL; listed as Homo sapiens) [compound 206],″+++″ (≥50% = +++)
12,207 (GLTSTNAEV; listed as Homo sapiens) [compound 207],″++″ (≥20% = ++)
13,208 (KISPVTFSV; listed as Homo sapiens) [compound 208],″+++″ (≥50% = +++)
14,209 (KLIESKHEV; listed as Homo sapiens) [compound 209],″++″ (≥20% = ++)
15,210 (LLLNAVLTV; listed as Homo sapiens) [compound 210],″++″ (≥20% = ++)
16,211 (LLWPGAALL; listed as Homo sapiens) [compound 211],″++″ (≥20% = ++)
17,212 (ALWDQDNLSV; listed as Homo sapiens) [compound 212],″++″ (≥20% = ++)
18,214 (FLLDLDPLLL; listed as Homo sapiens) [compound 214],″+++″ (≥50% = +++)
19,215 (QLINHLHAV; listed as Homo sapiens) [compound 215],″+++″ (≥50% = +++)
20,216 (NLWEDPYYL; listed as Homo sapiens) [compound 216],″+++″ (≥50% = +++)
21,217 (ALIHPVSTV; listed as Homo sapiens) [compound 217],″++″ (≥20% = ++)
22,218 (SALEELVNV; listed as Homo sapiens) [compound 218],″++″ (≥20% = ++)

row,Substance,"Peptide exchange (MHC class I binding score, peptide exchange yield)"
1,219 (KLSDIGITV; listed as Homo sapiens) [compound 219],″+++″ (≥50% = +++)
2,220 (LLQKFVPEI; listed as Homo sapiens) [compound 220],″++″ (≥20% = ++)
3,221 (ALYEEGLLL; listed as Homo sapiens) [compound 221],″++″ (≥20% = ++)
4,222 (NLIENVQRL; listed as Homo sapiens) [compound 222],″++″ (≥20% = ++)
5,223 (ALLENIALYL; listed as Homo sapiens) [compound 223],″+++″ (≥50% = +++)
6,224 (TLIDAQWVL; listed as Homo sapiens) [compound 224],″+++″ (≥50% = +++)
7,225 (SLLKVLPAL; listed as Homo sapiens) [compound 225],″+++″ (≥50% = +++)
8,226 (MLYVVPIYL; listed as Homo sapiens) [compound 226],″++″ (≥20% = ++)
9,227 (ALMNTLLYL; listed as Homo sapiens) [compound 227],″++″ (≥20% = ++)
10,228 (AMQEYIAVV; listed as Homo sapiens) [compound 228],″++″ (≥20% = ++)
11,229 (RLPGPLGTV; listed as Homo sapiens) [compound 229],″++″ (≥20% = ++)
12,230 (ILVDWLVEV; listed as Homo sapiens) [compound 230],″+″ (≥10% = +)
13,231 (FLSPQQPPLLL; listed as Homo sapiens) [compound 231],″++″ (≥20% = ++)
14,232 (ALLEAQDVELYL; listed as Homo sapiens) [compound 232],″++″ (≥20% = ++)
15,233 (VLSETLYEL; listed as Homo sapiens) [compound 233],″++″ (≥20% = ++)
16,234 (ALMEDTGRQML; listed as Homo sapiens) [compound 234],″++″ (≥20% = ++)
17,235 (YLNDLHEVLL; listed as Homo sapiens) [compound 235],″++++″ (≥75% = ++++)
18,236 (GLLEAKVSL; listed as Homo sapiens) [compound 236],″+++″ (≥50% = +++)
19,237 (ALLEASGTLLL; listed as Homo sapiens) [compound 237],″++++″ (≥75% = ++++)
20,238 (YLISFQTHI; listed as Homo sapiens) [compound 238],″+++″ (≥50% = +++)
21,239 (AAFAGKLLSV; listed as Homo sapiens) [compound 239],″+++″ (≥50% = +++)
